{"source": "patent US20210113687A1", "about": "“METHODS FOR TREATING INFLAMMATION” (NEW YORK UNIVERSITY, priority 2013, published 2021)", "molecular_target": "netrin-1 secreted by mouse macrophages (conditioned medium of oxLDL-, CoCl2-, HIF-1alpha- or palmitate-treated macrophages) (mouse) (UniProt O09118)", "experiment": "cell-based or functional assay"}
{"substance": "recombinant rat UNC5b-Fc chimera (cat #1006-UN, R&D Systems) (from UniProt O08722 27-373) (Fc fusion)", "values": [{"measurement": "inhibition of migration of naive macrophages to CCL19 by Ntn1+/+ conditioned medium with UNC5b-Fc", "value": 25, "unit": "%"}]}
